Measurements from patent publication US20210032365A1 (Chugai, published 2021).
Where a chain is given by its changes, count along the chain named.

Legend:
[1] = molecular target: T1, human C1s (human, UniProt P09871 16-688); test: SPR, Ab captured; pH 7.4, 1.2 mM Ca
T1 construct: also called hC1s; serum-derived human C1s (CompTech)
T1 sequence: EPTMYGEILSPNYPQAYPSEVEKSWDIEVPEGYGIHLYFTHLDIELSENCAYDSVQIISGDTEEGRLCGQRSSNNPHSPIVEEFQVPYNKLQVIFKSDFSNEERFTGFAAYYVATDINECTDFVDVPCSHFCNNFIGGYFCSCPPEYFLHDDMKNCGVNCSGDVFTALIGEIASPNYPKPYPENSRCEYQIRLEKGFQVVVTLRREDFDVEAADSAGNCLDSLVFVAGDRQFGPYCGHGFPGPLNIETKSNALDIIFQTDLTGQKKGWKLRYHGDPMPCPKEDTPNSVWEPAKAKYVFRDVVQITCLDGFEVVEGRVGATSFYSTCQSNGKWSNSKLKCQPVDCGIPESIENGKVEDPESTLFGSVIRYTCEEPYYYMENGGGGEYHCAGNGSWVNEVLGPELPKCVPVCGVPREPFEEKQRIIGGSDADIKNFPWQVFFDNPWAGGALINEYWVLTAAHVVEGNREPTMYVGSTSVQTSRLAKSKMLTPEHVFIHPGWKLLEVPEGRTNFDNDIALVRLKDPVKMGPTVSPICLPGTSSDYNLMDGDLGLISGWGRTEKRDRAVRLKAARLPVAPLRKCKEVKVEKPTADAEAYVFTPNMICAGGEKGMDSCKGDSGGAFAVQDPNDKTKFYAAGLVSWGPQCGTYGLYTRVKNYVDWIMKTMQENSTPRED
Experimental: (§1) All variants were transiently expressed and purified by the method described above. The binding affinity of each histidine-substituted variant at pH 7.4 and pH 5.8 was determined at 37 degrees C. using Biacore T200 instrument (GE Healthcare). Recombinant Protein A/G (Pierce) was immobilized onto all flow cells of a CM4 sensor chip using an amine coupling kit (GE Healthcare). Antibodies and analytes were prepared in 7(+) buffer (20 mM ACES, 150 mM NaCl, 1.2 mM CaCl2, 0.05% Tween 20, 0.005% NaN3, pH 7.4), 5(+) buffer (20 mM ACES, 150 mM NaCl, 1.2 mM CaCl2, 0.05% Tween 20, 0.005% NaN3, pH 5.8), or 5(−) buffer (20 mM ACES, 150 mM NaCl, 3 micro M CaCl2, 0.05% Tween 20, 0.005% NaN3, pH 5.8). Each antibody was captured onto the sensor surface by protein A/G. Antibody capture levels were aimed at 200 resonance unit (RU). Serum-derived human C1s (CompTech) or recombinant C1s prepared in EXAMPLE 1 was injected at 50 nM, followed by dissociation. The sensor surface was regenerated in each cycle with 10 mM Glycine-HCl, pH 1.5. […] The ratio of KD 5.8+ to KD 7.4+(“KD 5+/7+”) and that of KD 5.8− to KD 7.4+(“KD 5−/7+”) were calculated. When the KD 5+/7+ or KD 5−/7+ of a variant is larger than that of the parent antibody IPN009VH2-SG4GK/IPN009VK3-SK1, that variant is considered to be “pH”- or “pH and Ca”-dependent, respectively. When binding response in 5(+) buffer and/or in 5(−) buffer of a variant is much lower than that of IPN09VH2/IPN009VK3, that variant is also considered as “pH”- and/or “pH and Ca”-dependent. Therefore, such mutations are effective to generate “pH”- and/or “pH and Ca”-dependent antibody. To further enhance “pH” and/or “pH and Ca” dependency, a combination of histidine mutations was conducted. Antibodies with combinations of histidine mutations were evaluated using Biacore by the method described above.

[2] = molecular target: T1, human C1s; test: SPR, Ab captured; pH 5.8, 1.2 mM Ca
Experimental: as §1

[3] = molecular target: T1, human C1s; test: SPR, Ab captured; pH 7.4, 1.2 mM Ca; remark: listed apart in the source
Experimental: (§2) Each antibody was captured onto the sensor surface by protein A/G. Antibody capture levels were aimed at 200 resonance unit (RU). Serum-derived human C1s (CompTech) or recombinant C1s prepared in EXAMPLE 1 was injected at 50 nM, followed by dissociation. The sensor surface was regenerated in each cycle with 10 mM Glycine-HCl, pH 1.5. […] The ratio of KD 5.8+ to KD 7.4+(“KD 5+/7+”) and that of KD 5.8− to KD 7.4+(“KD 5−/7+”) were calculated. When the KD 5+/7+ or KD 5−/7+ of a variant is larger than that of the parent antibody IPN009VH2-SG4GK/IPN009VK3-SK1, that variant is considered to be “pH”- or “pH and Ca”-dependent, respectively. When binding response in 5(+) buffer and/or in 5(−) buffer of a variant is much lower than that of IPN09VH2/IPN009VK3, that variant is also considered as “pH”- and/or “pH and Ca”-dependent. Therefore, such mutations are effective to generate “pH”- and/or “pH and Ca”-dependent antibody. To further enhance “pH” and/or “pH and Ca” dependency, a combination of histidine mutations was conducted. Antibodies with combinations of histidine mutations were evaluated using Biacore by the method described above.
(§3) C1_1IPN92H0033 (SEQ ID NO: 17)-SG4GK/IPN93L0024 (SEQ ID NO: 18)-SK1 (IPN92H0033/IPN93L0024) was selected for further optimization. Histidine, Lysine, Arginine, aspartic acid, glutamic acid, and glutamine scanning was conducted for CDRs and certain positions of FRs of IPN92H0033/IPN93L0024. Variants with a mutation were generated and purified, and evaluated using Biacore by the method mentioned above. All variants were evaluated using Biacore as mentioned above. Mutations that improved “pH” and/or “pH and Ca” dependency were selected for the combination.

[4] = molecular target: T1, human C1s; test: SPR; KD pH 5.8 3 uM Ca / KD pH 7.4 1.2 mM Ca
Experimental: as §1

[5] = molecular target: T1, human C1s; test: SPR; KD pH 5.8 1.2 mM Ca / KD pH 7.4 1.2 mM Ca
Experimental: as §1

[6] = molecular target: T2, human C1s (human, UniProt P09871 16-688); test: SPR; KD at pH 5.8 (3 uM Ca) over KD at pH 7.4 (1.2 mM Ca)
T2 construct: Analyte in the Biacore assays; also called hC1s; serum-derived human C1s (CompTech)
T2 sequence: T1 sequence
Experimental: as §2, §3

[7] = molecular target: T2, human C1s; test: SPR; KD at pH 5.8 (1.2 mM Ca) over KD at pH 7.4 (1.2 mM Ca)
Experimental: as §2, §3

[8] = molecular target: T2, human C1s; test: SPR (Biacore T200, 37C), Ab captured on protein A/G; pH 5.8, 3 uM Ca
Experimental: as §2, §3

[9] = molecular target: T2, human C1s; test: SPR (Biacore T200, 37C), Ab captured on protein A/G; pH 5.8, 1.2 mM Ca
Experimental: as §2, §3

B1: C1_IPN92H0033-SG4GK/IPN93L0024-SK1 (antibody, human IgG4 S228P, kappa)
heavy: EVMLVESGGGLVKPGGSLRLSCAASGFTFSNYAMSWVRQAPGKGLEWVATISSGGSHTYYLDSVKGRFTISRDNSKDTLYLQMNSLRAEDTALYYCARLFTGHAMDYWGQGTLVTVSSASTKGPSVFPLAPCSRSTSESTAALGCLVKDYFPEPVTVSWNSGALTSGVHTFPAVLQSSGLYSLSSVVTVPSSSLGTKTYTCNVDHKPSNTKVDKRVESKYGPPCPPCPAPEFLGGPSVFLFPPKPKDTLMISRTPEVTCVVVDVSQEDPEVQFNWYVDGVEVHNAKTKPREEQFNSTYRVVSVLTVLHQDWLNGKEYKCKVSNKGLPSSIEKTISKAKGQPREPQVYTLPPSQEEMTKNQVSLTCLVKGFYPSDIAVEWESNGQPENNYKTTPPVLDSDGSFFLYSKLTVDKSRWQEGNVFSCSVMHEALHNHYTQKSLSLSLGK
light: QIVLTQSPATLSLSPGERATLSCTASSSVSSSYLHWYQQKPGKAPKLWIYSTSNLASGVPSRFSGSGSGTDYTLTISSLQPEDFATYYCHQYYRLHPITFGQGTKLEIKRTVAAPSVFIFPPSDEQLKSGTASVVCLLNNFYPREAKVQWKVDNALQSGNSQESVTEQDSKDSTYSLSSTLTLSKADYEKHKVYACEVTHQGLSSPVTKSFNRGEC
notes: also called IPN92H0033/IPN93L0024
[1]
  koff: 0.000776 s⁻¹
  kon: 268000 M⁻¹ s⁻¹
[2]
  koff: 0.0045 s⁻¹
  kon: 519000 M⁻¹ s⁻¹
[3]
  koff: 0.000776 s⁻¹
  kon: 268000 M⁻¹ s⁻¹
[4]
  KD 5(-)/7(+): 1.8
[5]
  KD 5(+)/7(+): 3

B2: C1_IPN92H0261-SG4GK/IPN93L0091-SK1 (antibody, human IgG4 S228P, kappa, name in Kabat numbering, V domains shown)
VH: EVMLVESGGGLVKPGGSLRLSCAASGFTFSNYAMSWVRQAPGKGLEWVATISSGGSHTYELDSVKGRFTISRDNSKDTLYLQMNSLRAEDTALYYCARLFTKHAMDYWGQGTLVTVSS
VL: QIVLTQSPATLSLSPGERATLSCTASSSVSSSRLHWYQQKPGKAPKLWIYSTSNLASGVPSRFSGSGSGTDYTLTISSLQPEDFATYYCHQYYRLHPITFGQGTKLEIKR
notes: Substitutions from IPN009VH2 / IPN009VK3, Kabat numbering; also called IPN92H0261/IPN93L0091
[6]
  KD 5(-)/7(+): 12.3
[7]
  KD 5(+)/7(+): 16.3
[8]
  Kd: 12.1 nM
  koff: 0.00736 s⁻¹
  kon: 606000 M⁻¹ s⁻¹
[9]
  Kd: 16.1 nM
  koff: 0.00533 s⁻¹
  kon: 332000 M⁻¹ s⁻¹

B3: C1_IPN92H0279-SG4GK/IPN93L0091-SK1 (antibody, human IgG4 S228P, kappa, name in Kabat numbering, V domains shown)
VH: B2 VH with G66E
VL: B2 VL
notes: Substitutions from IPN009VH2 / IPN009VK3, Kabat numbering; also called IPN92H0279/IPN93L0091
[6]
  KD 5(-)/7(+): 7.54
[7]
  KD 5(+)/7(+): 29.2
[8]
  Kd: 5.17 nM
  koff: 0.00611 s⁻¹
  kon: 1.18e+06 M⁻¹ s⁻¹
[9]
  Kd: 20 nM
  koff: 0.00684 s⁻¹
  kon: 342000 M⁻¹ s⁻¹

B4: C1_IPN92H0288-SG4GK/IPN93L0212-SK1 (antibody, human IgG4 S228P, kappa, name in Kabat numbering, V domains shown)
VH: B2 VH with K65D
VL: B2 VL with S28E, S31E
notes: VL substitutions from IPN009VK3, Kabat numbering; also called IPN92H0288/IPN93L0212
[6]
  KD 5(-)/7(+): 3.75
[7]
  KD 5(+)/7(+): 11.6
[8]
  Kd: 6.79 nM
  koff: 0.00533 s⁻¹
  kon: 784000 M⁻¹ s⁻¹
[9]
  Kd: 21 nM
  koff: 0.0198 s⁻¹
  kon: 945000 M⁻¹ s⁻¹

B5: C1_IPN92H0282-SG4GK/IPN93L0024-SK1 (antibody, human IgG4 S228P, kappa, name in Kabat numbering, V domains shown)
VH: B2 VH with K65D, G66E
VL: B2 VL with R33Y
notes: Substitutions from IPN009VH2, Kabat numbering; also called IPN92H0282/IPN93L0024
[6]
  KD 5(-)/7(+): 5.18
[7]
  KD 5(+)/7(+): 10.9
[8]
  Kd: 8.55 nM
  koff: 0.00327 s⁻¹
  kon: 382000 M⁻¹ s⁻¹
[9]
  Kd: 18 nM
  koff: 0.00998 s⁻¹
  kon: 553000 M⁻¹ s⁻¹

B6: C1_IPN92H0282-SG4GK/IPN93L0091-SK1 (antibody, human IgG4 S228P, kappa, name in Kabat numbering, V domains shown)
VH: B2 VH with K65D, G66E
VL: B2 VL
notes: Substitutions from IPN009VH2 / IPN009VK3, Kabat numbering; also called IPN92H0282/IPN93L0091
[6]
  KD 5(-)/7(+): 1.13
[7]
  KD 5(+)/7(+): 8.6
[8]
  Kd: 2.21 nM
  koff: 0.00148 s⁻¹
  kon: 670000 M⁻¹ s⁻¹
[9]
  Kd: 16.9 nM
  koff: 0.00755 s⁻¹
  kon: 445000 M⁻¹ s⁻¹

B7: C1_IPN92H0281-SG4GK/IPN93L0091-SK1 (antibody, human IgG4 S228P, kappa, name in Kabat numbering, V domains shown)
VH: B2 VH with H57K, K65D, G66E
VL: B2 VL
notes: Substitutions from IPN009VH2 / IPN009VK3, Kabat numbering; also called IPN92H0281/IPN93L0091
[6]
  KD 5(-)/7(+): 0.82
[7]
  KD 5(+)/7(+): 2.4
[8]
  Kd: 3.88 nM
  koff: 0.00227 s⁻¹
  kon: 585000 M⁻¹ s⁻¹
[9]
  Kd: 11.3 nM
  koff: 0.00707 s⁻¹
  kon: 625000 M⁻¹ s⁻¹

B8: C1_IPN92H0281-SG4GK/IPN93L0024-SK1 (antibody, human IgG4 S228P, kappa, name in Kabat numbering)
heavy: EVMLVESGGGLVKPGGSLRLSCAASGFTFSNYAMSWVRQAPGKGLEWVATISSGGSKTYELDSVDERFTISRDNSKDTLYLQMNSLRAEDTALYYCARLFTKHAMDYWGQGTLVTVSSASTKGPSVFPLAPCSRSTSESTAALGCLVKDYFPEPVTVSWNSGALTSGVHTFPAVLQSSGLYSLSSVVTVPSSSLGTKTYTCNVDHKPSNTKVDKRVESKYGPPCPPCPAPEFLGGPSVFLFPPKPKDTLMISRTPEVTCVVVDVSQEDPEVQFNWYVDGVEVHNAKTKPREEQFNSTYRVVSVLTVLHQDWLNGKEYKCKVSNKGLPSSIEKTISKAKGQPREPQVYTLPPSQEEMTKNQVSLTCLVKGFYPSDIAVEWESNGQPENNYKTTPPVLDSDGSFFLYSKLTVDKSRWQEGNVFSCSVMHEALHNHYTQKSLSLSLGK
light: B1 light
notes: Substitutions from IPN009VH2, Kabat numbering; also called IPN92H0281/IPN93L0024
[6]
  KD 5(-)/7(+): 1.98
[7]
  KD 5(+)/7(+): 9.4
[8]
  Kd: 4.98 nM
  koff: 0.003 s⁻¹
  kon: 602000 M⁻¹ s⁻¹
[9]
  Kd: 23.6 nM
  koff: 0.024 s⁻¹
  kon: 1.02e+06 M⁻¹ s⁻¹

B9: C1_IPN92H0286-SG4GK/IPN93L0205-SK1 (antibody, human IgG4 S228P, kappa, name in Kabat numbering)
heavy: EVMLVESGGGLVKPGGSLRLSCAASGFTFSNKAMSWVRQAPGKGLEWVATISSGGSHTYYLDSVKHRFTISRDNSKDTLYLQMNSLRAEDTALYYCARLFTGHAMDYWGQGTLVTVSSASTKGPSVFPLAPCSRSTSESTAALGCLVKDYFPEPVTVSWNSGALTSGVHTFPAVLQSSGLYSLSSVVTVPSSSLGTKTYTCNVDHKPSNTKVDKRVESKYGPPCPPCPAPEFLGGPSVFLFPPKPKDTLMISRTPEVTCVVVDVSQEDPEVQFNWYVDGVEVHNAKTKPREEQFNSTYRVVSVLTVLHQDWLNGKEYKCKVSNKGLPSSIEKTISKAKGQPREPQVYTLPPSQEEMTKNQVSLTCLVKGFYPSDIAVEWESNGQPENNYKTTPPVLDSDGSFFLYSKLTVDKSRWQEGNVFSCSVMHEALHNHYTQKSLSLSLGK
light: B1 light with Y33R, Y93H, L95H, H96P
notes: Substitutions from IPN009VH2 / IPN009VK3, Kabat numbering; also called IPN92H0286/IPN93L0205
[6]
  KD 5(-)/7(+): 2.94
[7]
  KD 5(+)/7(+): 4.2
[8]
  Kd: 4.65 nM
  koff: 0.00477 s⁻¹
  kon: 1.03e+06 M⁻¹ s⁻¹
[9]
  Kd: 6.57 nM
  koff: 0.00346 s⁻¹
  kon: 527000 M⁻¹ s⁻¹
